Reference: patent US20250114463A1, “LIVER-TARGETED DRUG AND USE THEREOF” (HANMI PHARM. CO., LTD., priority 2021, published 2025)
Bridges are numbered along the chain shown (N, C = ends). Where no end group is shown, it is not given here. [ ]: non-standard residue; d: D form. The star is where a group is joined. Acetyl(2-(4-imidazolyl)) = O=C(Cc1c[nH]cn1)*; Aib = CC(C)(N)C(=O)O

T1: human GIP receptor (human, UniProt P48546 22-466)
T1 sequence (looked up): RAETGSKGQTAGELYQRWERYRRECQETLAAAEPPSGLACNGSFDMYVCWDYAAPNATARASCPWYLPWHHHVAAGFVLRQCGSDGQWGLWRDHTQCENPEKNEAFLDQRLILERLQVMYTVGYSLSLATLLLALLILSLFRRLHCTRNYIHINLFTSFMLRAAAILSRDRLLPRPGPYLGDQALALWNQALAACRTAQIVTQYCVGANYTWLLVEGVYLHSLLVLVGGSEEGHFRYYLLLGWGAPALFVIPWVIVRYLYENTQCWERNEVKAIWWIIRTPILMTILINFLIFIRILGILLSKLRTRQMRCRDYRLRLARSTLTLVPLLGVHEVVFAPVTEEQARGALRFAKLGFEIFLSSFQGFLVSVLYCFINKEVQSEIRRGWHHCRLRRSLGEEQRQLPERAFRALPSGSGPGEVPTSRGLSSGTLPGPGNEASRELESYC


Columns and labels:
Experiment in all cases: cell-based or functional assay
human GIP receptor = target: T1, human GIP receptor
human GCG receptor = human GCG receptor (human, UniProt P47871 26-477)
human GCG receptor, sequence (P47871 26-477): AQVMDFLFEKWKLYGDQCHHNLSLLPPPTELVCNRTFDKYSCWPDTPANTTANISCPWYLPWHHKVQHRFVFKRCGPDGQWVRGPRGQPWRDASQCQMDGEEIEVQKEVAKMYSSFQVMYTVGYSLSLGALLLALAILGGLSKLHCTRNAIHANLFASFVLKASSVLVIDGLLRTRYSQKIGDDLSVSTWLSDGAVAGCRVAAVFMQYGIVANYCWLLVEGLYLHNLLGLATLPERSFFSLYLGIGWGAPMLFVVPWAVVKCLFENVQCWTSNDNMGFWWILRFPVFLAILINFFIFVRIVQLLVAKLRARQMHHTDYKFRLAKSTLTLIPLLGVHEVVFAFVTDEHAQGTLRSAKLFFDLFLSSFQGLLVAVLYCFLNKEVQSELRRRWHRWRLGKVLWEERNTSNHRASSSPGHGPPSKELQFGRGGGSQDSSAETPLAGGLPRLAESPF

human GLP-1 receptor = human GLP-1 receptor (human, UniProt P43220 24-463)

| Binder | in vitro Activity Compared to Native Peptide (%), vs GIP (human GIP receptor) | in vitro Activity Compared to Native Peptide (%), vs Glucagon (human GCG receptor) | in vitro Activity Compared to Native Peptide (%), vs GLP-1 (human GLP-1 receptor) |
| --- | --- | --- | --- |
| H[Aib]QGTFTSDYSIAMDEIHQKDFVNWLLAQC (bridge 16-20; not fully specified (C-terminus)) [triple agonist of SEQ ID NO: 55] | 2.4% | 0.7% | 27.1% |
| H[Aib]QGTFTSDYSKYLDEKRQKEFVNWLLAQC (bridge 16-20; not fully specified (C-terminus)) [triple agonist of SEQ ID NO: 56] | 0.8% | 4.9% | 57.9% |
| [Acetyl(2-(4-imidazolyl))][Aib]QGTFTSDYSICMDEIHQKDFVNWLLNTK (bridge 16-20; not fully specified (C-terminus)) [triple agonist of SEQ ID NO: 49] | 3.3% | < 0.1% | 29.8% |
| HGQGTFTSDCSKQLDGQAAQEFVAWLLAGGPSSGAPPPS (not fully specified (C-terminus)) [triple agonist of SEQ ID NO: 44] | < 0.1% | < 0.1% | 1.3% |
| HGQGTFTSDCSKYLDGQRAQEFVAWLLAGGPSSGAPPPS (not fully specified (C-terminus)) [triple agonist of SEQ ID NO: 47] | < 0.1% | < 0.1% | 2.4% |
| HGQGTFTSDCSKYMDGQAAQDFVAWLLAGGPSSGAPPPS (not fully specified (C-terminus)) [triple agonist of SEQ ID NO: 45] | < 0.1% | < 0.1% | 6.6% |
| HGQGTFTSDCSKYLDGQRAQDFVNWLLAGGPSSGAPPPS (not fully specified (C-terminus)) [triple agonist of SEQ ID NO: 48] | < 0.1% | < 0.1% | 1.5% |
| HGQGTFTSDCSKYLDEQHAQEFVAWLLAGGPSSGAPPPS (not fully specified (C-terminus)) [triple agonist of SEQ ID NO: 46] | < 0.1% | < 0.1% | 1.4% |
| Y[Aib]QGTFTSDYSKYLDEKRAKEFVQWLLDHHCSSGQPPPS-NH2 (bridge 16-20) [triple agonist of SEQ ID NO: 43] | 3.7% | 88.4% | 12.6% |
| Y[Aib]QGTFTSDYSKYLDEKRAKEFVQWLLDHHPSSGQPPPSC-NH2 (bridge 16-20) [triple agonist of SEQ ID NO: 42] | 7.8% | 206% | 33.9% |
| H[Aib]QGTFTSDVSSYLLGQQQKEFIAWLVKGGGPSSGAPPPSC-NH2 [triple agonist of SEQ ID NO: 5] | < 0.1% | < 0.1% | 42.1% |
| H[Aib]QGTFTSDYSKYLDEKRQKEFVQWLLNTKC (bridge 16-20; not fully specified (C-terminus)) [triple agonist of SEQ ID NO: 58] | 0.2% | 2.6% | 39.1% |
| H[Aib]QGTFTSDYSKYLDEKRAKEFVQWLLDHHPSSGQPPPSC-NH2 (bridge 16-20) [triple agonist of SEQ ID NO: 50] | 2.7% | 50.5% | 67.4% |
| H[Aib]QGTFTSDYSKYLDEKRQKEFVQWLLDTC (bridge 16-20; not fully specified (C-terminus)) [triple agonist of SEQ ID NO: 52] | 0.3% | 7.5% | 44.1% |
| H[Aib]QGTFTSDYSKYLDEKRQKEFVQWLLNTC (bridge 16-20; not fully specified (C-terminus)) [triple agonist of SEQ ID NO: 51] | 0.1% | 2% | 14.4% |
| [Acetyl(2-(4-imidazolyl))][Aib]QGTFTSDYSICMDEKHQKDFVNWLLNTK (bridge 16-20; not fully specified (C-terminus)) [triple agonist of SEQ ID NO: 59] | 4% | < 0.1% | 40.3% |
| HXQGTFTSDVSSYLDGQAAKEFVAWLLKGC (HELM PEPTIDE1{H.[Aib].Q.G.T.F.T.S.D.V.S.S.Y.L.D.G.Q.A.A.K.E.F.V.A.W.L.L.K.G.C.[am]}$$$$V2.0; N-terminus assumed; SMILES CC(C)C[C@H](NC(=O)[C@H](Cc1c[nH]c2ccccc12)NC(=O)[C@H](C)NC(=O)[C@@H](NC(=O)[C@H](Cc1ccccc1)NC(=O)[C@H](CCC(=O)O)NC(=O)[C@H](CCCCN)NC(=O)[C@H](C)NC(=O)[C@H](C)NC(=O)[C@H](CCC(N)=O)NC(=O)CNC(=O)[C@H](CC(=O)O)NC(=O)[C@H](CC(C)C)NC(=O)[C@H](Cc1ccc(O)cc1)NC(=O)[C@H](CO)NC(=O)[C@H](CO)NC(=O)[C@@H](NC(=O)[C@H](CC(=O)O)NC(=O)[C@H](CO)NC(=O)[C@@H](NC(=O)[C@H](Cc1ccccc1)NC(=O)[C@@H](NC(=O)CNC(=O)[C@H](CCC(N)=O)NC(=O)C(C)(C)NC(=O)[C@@H](N)Cc1c[nH]cn1)[C@@H](C)O)[C@@H](C)O)C(C)C)C(C)C)C(=O)N[C@@H](CC(C)C)C(=O)N[C@@H](CCCCN)C(=O)NCC(=O)N[C@@H](CS)C(N)=O) [triple agonist of SEQ ID NO: 6] | < 0.1% | < 0.1% | 17% |
| HXQGTFTSDKSKYLDECAAQDFVQWLLDGGPSSGAPPPS (HELM PEPTIDE1{H.[Aib].Q.G.T.F.T.S.D.K.S.K.Y.L.D.E.C.A.A.Q.D.F.V.Q.W.L.L.D.G.G.P.S.S.G.A.P.P.P.S.[am]}$$$$V2.0; N-terminus assumed; SMILES CC(C)C[C@H](NC(=O)[C@H](CC(C)C)NC(=O)[C@H](Cc1c[nH]c2ccccc12)NC(=O)[C@H](CCC(N)=O)NC(=O)[C@@H](NC(=O)[C@H](Cc1ccccc1)NC(=O)[C@H](CC(=O)O)NC(=O)[C@H](CCC(N)=O)NC(=O)[C@H](C)NC(=O)[C@H](C)NC(=O)[C@H](CS)NC(=O)[C@H](CCC(=O)O)NC(=O)[C@H](CC(=O)O)NC(=O)[C@H](CC(C)C)NC(=O)[C@H](Cc1ccc(O)cc1)NC(=O)[C@H](CCCCN)NC(=O)[C@H](CO)NC(=O)[C@H](CCCCN)NC(=O)[C@H](CC(=O)O)NC(=O)[C@H](CO)NC(=O)[C@@H](NC(=O)[C@H](Cc1ccccc1)NC(=O)[C@@H](NC(=O)CNC(=O)[C@H](CCC(N)=O)NC(=O)C(C)(C)NC(=O)[C@@H](N)Cc1c[nH]cn1)[C@@H](C)O)[C@@H](C)O)C(C)C)C(=O)N[C@@H](CC(=O)O)C(=O)NCC(=O)NCC(=O)N1CCC[C@H]1C(=O)N[C@@H](CO)C(=O)N[C@@H](CO)C(=O)NCC(=O)N[C@@H](C)C(=O)N1CCC[C@H]1C(=O)N1CCC[C@H]1C(=O)N1CCC[C@H]1C(=O)N[C@@H](CO)C(N)=O) [triple agonist of SEQ ID NO: 41] | < 0.1% | < 0.1% | 34.3% |
| H[Aib]EGTFTSDYSIAMDEIHQKDFVNWLLAQC (bridge 16-20; not fully specified (C-terminus)) [triple agonist of SEQ ID NO: 53] | 1.3% | 8.4% | 161% |
| H[Aib]QGTFTSDYSIAMDEIHQKDFVNWLLNTC (bridge 16-20; not fully specified (C-terminus)) [triple agonist of SEQ ID NO: 57] | 0.3% | < 0.1% | 11.7% |
| H[Aib]EGTFTSDYSIAMDEIHQKDFVDWLLAEC (bridge 16-20; not fully specified (C-terminus)) [triple agonist of SEQ ID NO: 54] | 0.1% | 1.4% | 30.6% |
